The target of the test is low density lipoprotein receptor (LDLR) expressed on HEK293 cells transfected with LDLR modified mRNA (mRNA SEQ ID NO: 21463) (human) (UniProt P01130). Put plainly: Flow cytometry (FACS): increasing amounts of BODIPY-LDL on HEK293 cells transfected with LDLR mRNA, 1.0 h at 37 C.
Sequence of low density lipoprotein receptor (LDLR) expressed on HEK293 cells transfected with LDLR modified mRNA (mRNA SEQ ID NO: 21463) (human) (P01130 22-860): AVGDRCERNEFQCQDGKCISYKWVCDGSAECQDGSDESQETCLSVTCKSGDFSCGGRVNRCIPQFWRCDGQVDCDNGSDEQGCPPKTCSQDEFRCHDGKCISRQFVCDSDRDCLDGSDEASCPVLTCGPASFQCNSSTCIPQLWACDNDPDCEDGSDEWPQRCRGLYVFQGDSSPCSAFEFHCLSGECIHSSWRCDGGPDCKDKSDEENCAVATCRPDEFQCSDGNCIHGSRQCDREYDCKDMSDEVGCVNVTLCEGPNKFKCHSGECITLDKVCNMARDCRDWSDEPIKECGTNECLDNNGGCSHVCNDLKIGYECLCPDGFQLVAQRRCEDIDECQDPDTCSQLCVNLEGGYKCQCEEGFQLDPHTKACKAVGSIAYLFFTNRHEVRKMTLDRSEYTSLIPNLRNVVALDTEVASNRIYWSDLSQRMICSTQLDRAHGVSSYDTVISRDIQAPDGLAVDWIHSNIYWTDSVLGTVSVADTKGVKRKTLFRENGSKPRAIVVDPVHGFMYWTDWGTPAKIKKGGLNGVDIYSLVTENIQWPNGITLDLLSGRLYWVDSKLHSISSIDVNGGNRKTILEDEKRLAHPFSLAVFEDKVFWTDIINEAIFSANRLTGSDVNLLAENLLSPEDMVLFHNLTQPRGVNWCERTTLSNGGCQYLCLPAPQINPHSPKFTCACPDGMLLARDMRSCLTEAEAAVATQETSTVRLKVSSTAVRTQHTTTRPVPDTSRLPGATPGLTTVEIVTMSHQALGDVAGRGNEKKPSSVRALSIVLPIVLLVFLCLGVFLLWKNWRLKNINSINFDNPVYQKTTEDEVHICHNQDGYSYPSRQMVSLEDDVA

As usually defined, the Kd is the concentration at which binding is half-saturated. With “BODIPY-labeled LDL (low density lipoprotein) (from UniProt P04114 28-4563) (ligand)”, the Kd was 0.06 µg/mL.

Source of the values: patent US20160075733A1.
